Paper PMC12592476 (2025)

Tests used:
[1] = target: T1, F-actin (rabbit skeletal α-actin, polymerized) (rabbit, UniProt P68135 1-377); assay: ADP-F-actin
[2] = target: T2, bovine brain Arp2/3 complex (bovine, UniProt P61157 1-418; A7MB62 1-394; Q58CQ2 1-372; Q3MHR7 1-300; Q3T035 1-178; Q148J6 …); assay: ITC; ADP-bound Arp2/3 complex
[3] = target: T2, bovine brain Arp2/3 complex; assay: ITC; ATP-bound Arp2/3 complex
[4] = target: T1, F-actin (rabbit skeletal α-actin, …); assay: ADP-BeF3- F-actin
[5] = target: T1, F-actin (rabbit skeletal α-actin, …); assay: ADP-F-actin (- BeF3-)

Binder | Kd [1] [µM] | further results
human Coro7 β2 (domain or fragment) KFRHAQGTVLHRDSHITNLKGLNLTTPGESDGFCANKLRVAVPLLSSGGQVAVLELRKPGRLPDTALPTLQNGAAVTDLAWDPFDPHRLAVAGEDARIRLWRVPAEGLEEVLTTPETVLTGHTEKICSLRFHPLAANVLASSSYDLTVRIWDLQAGADRLKLQGHQDQIFSLAWSPDGQQLATVCKDGRVRVYRPRSGPEPLQEGPGPKGGRGARIVWVCDGRCLLVSGFDSQSERQLLLYEAEALAGGPLAVLGLDVAPSTLLPSYDPDTGLVLLTGKGDTRVFLYELLPESPFFLECNSFTSPDPHKGLVLLPKTECDVREVELMRCLRLRQSSLEPVAFRLPRVRKEFFQDDVFPDTAVIWEPVLSAEAWLQGANGQPWLLSLQPPDMS | 11 | –
human Coro7 β1β2 (domain or fragment) MNRFRVSKFRHTEARPPRRESWISDIRAGTAPSCRNHIKSSCSLIAFNSDRPGVLGIVPLQGQGEDKRRVAHLGCHSDLVTDLDFSPFDDFLLATGSADRTVKLWRLPGPGQALPSAPGVVLGPEDLPVEVLQFHPTSDGILVSAAGTTVKVWDAAKQQPLTELAAHGDLVQSAVWSRDGALVGTACKDKQLRIFDPRTKPRASQSTQAHENSRDSRLAWMGTWEHLVSTGFNQMREREVKLWDTRFFSSALASLTLDTSLGCLVPLLDPDSGLLVLAGKGERQLYCYEVVPQQPALSPVTQCVLESVLRGAALVPRQALAVMSCEVLRVLQLSDTAIVPIGYHVPRKAVEFHEDLFPDTAGCVPATDPHSWWAGDNQQVQKVSLNPACRPHPSFTSCLVPPAEPLPDTAQPAVMETPVGDADASEGFSSPPSSLTSPSTPSSLGPSLSSTSGIGTSPSLRSLQSLLGPSSKFRHAQGTVLHRDSHITNLKGLNLTTPGESDGFCANKLRVAVPLLSSGGQVAVLELRKPGRLPDTALPTLQNGAAVTDLAWDPFDPHRLAVAGEDARIRLWRVPAEGLEEVLTTPETVLTGHTEKICSLRFHPLAANVLASSSYDLTVRIWDLQAGADRLKLQGHQDQIFSLAWSPDGQQLATVCKDGRVRVYRPRSGPEPLQEGPGPKGGRGARIVWVCDGRCLLVSGFDSQSERQLLLYEAEALAGGPLAVLGLDVAPSTLLPSYDPDTGLVLLTGKGDTRVFLYELLPESPFFLECNSFTSPDPHKGLVLLPKTECDVREVELMRCLRLRQSSLEPVAFRLPRVRKEFFQDDVFPDTAVIWEPVLSAEAWLQGANGQPWLLSLQPPDMS | 5.2 | –
SDQQKKEELLNAMVAKLGNREDPLPQDSFEGVDEDEWD (domain or fragment) [human Coro7 CA (C-terminal Central-Acidic region of coronin 7)] | – | Kd [2]: 0.9 µM; Kd [3]: 1.9 µM
human Coro7 β1 (domain or fragment) MNRFRVSKFRHTEARPPRRESWISDIRAGTAPSCRNHIKSSCSLIAFNSDRPGVLGIVPLQGQGEDKRRVAHLGCHSDLVTDLDFSPFDDFLLATGSADRTVKLWRLPGPGQALPSAPGVVLGPEDLPVEVLQFHPTSDGILVSAAGTTVKVWDAAKQQPLTELAAHGDLVQSAVWSRDGALVGTACKDKQLRIFDPRTKPRASQSTQAHENSRDSRLAWMGTWEHLVSTGFNQMREREVKLWDTRFFSSALASLTLDTSLGCLVPLLDPDSGLLVLAGKGERQLYCYEVVPQQPALSPVTQCVLESVLRGAALVPRQALAVMSCEVLRVLQLSDTAIVPIGYHVPRKAVEFHEDLFPDTAGCVPATDPHSWWAGDNQQVQKVSLNPACRPHPSFTSCLV | 5.5 | –
human Coro7 full length (Coro7 FL) (natural protein) MNRFRVSKFRHTEARPPRRESWISDIRAGTAPSCRNHIKSSCSLIAFNSDRPGVLGIVPLQGQGEDKRRVAHLGCHSDLVTDLDFSPFDDFLLATGSADRTVKLWRLPGPGQALPSAPGVVLGPEDLPVEVLQFHPTSDGILVSAAGTTVKVWDAAKQQPLTELAAHGDLVQSAVWSRDGALVGTACKDKQLRIFDPRTKPRASQSTQAHENSRDSRLAWMGTWEHLVSTGFNQMREREVKLWDTRFFSSALASLTLDTSLGCLVPLLDPDSGLLVLAGKGERQLYCYEVVPQQPALSPVTQCVLESVLRGAALVPRQALAVMSCEVLRVLQLSDTAIVPIGYHVPRKAVEFHEDLFPDTAGCVPATDPHSWWAGDNQQVQKVSLNPACRPHPSFTSCLVPPAEPLPDTAQPAVMETPVGDADASEGFSSPPSSLTSPSTPSSLGPSLSSTSGIGTSPSLRSLQSLLGPSSKFRHAQGTVLHRDSHITNLKGLNLTTPGESDGFCANKLRVAVPLLSSGGQVAVLELRKPGRLPDTALPTLQNGAAVTDLAWDPFDPHRLAVAGEDARIRLWRVPAEGLEEVLTTPETVLTGHTEKICSLRFHPLAANVLASSSYDLTVRIWDLQAGADRLKLQGHQDQIFSLAWSPDGQQLATVCKDGRVRVYRPRSGPEPLQEGPGPKGGRGARIVWVCDGRCLLVSGFDSQSERQLLLYEAEALAGGPLAVLGLDVAPSTLLPSYDPDTGLVLLTGKGDTRVFLYELLPESPFFLECNSFTSPDPHKGLVLLPKTECDVREVELMRCLRLRQSSLEPVAFRLPRVRKEFFQDDVFPDTAVIWEPVLSAEAWLQGANGQPWLLSLQPPDMSPVSQAPREAPARRAPSSAQYLEEKSDQQKKEELLNAMVAKLGNREDPLPQDSFEGVDEDEWD | 9.9 | Kd [4]: 37.4 µM; Kd [5]: 9.9 µM
